In patent publication US20080008648A1 one finds inhibition of IL13-suppressed CD14 expression on human monocytes (complete inhibition) data, which are given here for one substance.

The target in this test is human IL13 (human) (UniProt P35225). Nature of the test: cell-based or functional assay.
human IL13 (human), sequence (P35225 35-146 limits assumed): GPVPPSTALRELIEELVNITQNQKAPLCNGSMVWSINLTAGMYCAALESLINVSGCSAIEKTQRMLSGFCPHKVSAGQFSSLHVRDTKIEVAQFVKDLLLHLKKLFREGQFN

As to “anti-IL13 mAb JES10-5A2 (BD Biosciences-Pharmingen) (antibody)”, the inhibition of IL13-suppressed CD14 expression on human monocytes (complete inhibition) is more than 80 nM.
